# Read-outs that look alike come from different tables or passages of the source.
# How the values were obtained:
# [1] = target: T1, TraI36 (F TraI relaxase domain) (Escherichia coli F plasmid (F factor), UniProt P14565 1-330); experiment: fluorescence dissociation kinetics
# T1 sequence: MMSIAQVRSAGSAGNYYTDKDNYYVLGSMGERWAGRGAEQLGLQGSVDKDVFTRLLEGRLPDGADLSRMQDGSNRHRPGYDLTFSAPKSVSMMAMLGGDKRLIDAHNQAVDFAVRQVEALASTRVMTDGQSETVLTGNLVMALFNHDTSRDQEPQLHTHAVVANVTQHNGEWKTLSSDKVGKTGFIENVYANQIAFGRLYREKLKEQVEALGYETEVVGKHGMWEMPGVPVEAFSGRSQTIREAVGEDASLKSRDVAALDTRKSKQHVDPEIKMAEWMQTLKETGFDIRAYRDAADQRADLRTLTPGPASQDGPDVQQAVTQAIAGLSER
# [2] = target: T1, TraI36 (F TraI relaxase domain); experiment: competition
# [3] = target: T1, TraI36 (F TraI relaxase domain); experiment: fluorescence anisotropy and intensity
# [4] = target: T1, TraI36 (F TraI relaxase domain); experiment: fluorescence anisotropy and intensity; remark: listed apart in the source
Binder,Kd [3],further results
GCAAAAACTTGTTTTTCGGTGGGGTGTGGT (structured_DNA) [G151'C/C150'G Hairpin],,binding result [1]: binds
TTTGCGTGGGCTGTGGT (ssDNA) [G144'C 17mer],,binding result [2]: no binding
TTTCGGTGGGGTGTGGT (ssDNA) [G151'C/C150'G 17mer],0.39 ± 0.009 µM,
TTTGCGTGGGGTGTGGT (ssDNA) [WT 17mer],0.039 ± 0.0008 µM,
CGTTTTTGTTGTTTTTGCGTGGGGTGTGGT (ssDNA) [No Hairpin],0.016 ± 0.001 µM,
GCAAAAACTTGTTTTTGCGTGGGGTGTGGT (structured_DNA) [WT Hairpin],,Kd [4]: 0.0068 ± 0.0012 µM
CGAAAAACTTGTTTTTCGGTGGGGTGTGGT (structured_DNA) [G167'C/C166'G/G151'C/C150'G Hairpin],0.078 ± 0.002 µM,
CGAAAAACTTGTTTTTGCGTGGGGTGTGGT (structured_DNA) [G167'C/C166'G Hairpin],,Kd [4]: 0.012 ± 0.0018 µM

# Source: PMC1331984
